Where a chain is given by its changes, count along the chain named.
B1: peptide derivative H322AT (designed binder)
chain: DPQFGLFSKYRTPNCSQHEGMACYALYEPVCGSDMSTYANECTLCMKIREGGHNIKIIRNGPCGG
B2: peptide H321 (designed binder)
chain: B1 chain with Q17D, H18F, E19D, L26F, A39M, T43A
B3: peptide derivative H308AT (designed binder)
chain: B1 chain with Q17D, E19A, Y24V
B4: peptide H322 (designed binder)
chain: B1 chain with A39V, T43A
B5: peptide M7 (designed binder)
chain: B1 chain with Q17D, E19A, Y24V, L26F
B6: peptide H223 (designed binder)
chain: B1 chain with S16T, Q17M, H18D, E19M, Y24W, L26F
B7: peptide H228 (designed binder)
chain: B1 chain with S16G, Q17H, H18Y, E19N, M21W, Y24Q, L26F, Y27F
B8: peptide derivative H321AT (designed binder)
chain: B1 chain with Q17D, H18F, E19D, L26F
B9: peptide H218 (designed binder)
chain: B1 chain with S16L, Q17K, H18S, L26Y
B10: peptide H308 (designed binder)
chain: B1 chain with Q17D, E19A, Y24V, A39E, T43V
B11: peptide derivative H308_D1G_S16A (designed binder)
chain: B1 chain with D1G, S16A, Q17D, E19A, Y24V, A39E, T43V
B12: peptide derivative H321AT_D1G_S16A (designed binder)
chain: B1 chain with D1G, S16A, Q17D, H18F, E19D, L26F
B13: peptide derivative H322AT_D1G_S16A (designed binder)
chain: B1 chain with D1G, S16A

molecular target: T1, HTRA1 (full) (human, UniProt Q92743 23-480); assay: cell-based or functional assay
T1 sequence (Q92743 23-480): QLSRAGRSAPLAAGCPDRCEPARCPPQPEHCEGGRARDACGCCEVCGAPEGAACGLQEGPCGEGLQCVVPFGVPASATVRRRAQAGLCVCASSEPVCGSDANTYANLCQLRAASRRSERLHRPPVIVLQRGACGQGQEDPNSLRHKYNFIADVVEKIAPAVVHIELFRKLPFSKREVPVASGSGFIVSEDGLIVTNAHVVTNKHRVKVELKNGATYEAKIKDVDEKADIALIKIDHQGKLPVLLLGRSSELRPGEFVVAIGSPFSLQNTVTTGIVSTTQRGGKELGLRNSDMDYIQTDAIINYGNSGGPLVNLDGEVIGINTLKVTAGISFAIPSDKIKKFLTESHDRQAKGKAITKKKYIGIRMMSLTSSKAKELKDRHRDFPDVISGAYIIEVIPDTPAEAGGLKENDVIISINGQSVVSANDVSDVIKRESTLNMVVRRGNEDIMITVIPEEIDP

IC50 (nM) for HTRA1 (full), decomposition rate of substrate peptide H2-Opt [nM] | Binder
25 | B1
29 | B2
31 | B3
17 | B4
24 | B5
66 | B6
38 | B7
18 | B8
55 | B9
15 | B10

molecular target: T2, HTRA1 (cat) (human, UniProt Q92743 158-373); assay: cell-based or functional assay
T2 sequence (Q92743 158-373, form in doubt): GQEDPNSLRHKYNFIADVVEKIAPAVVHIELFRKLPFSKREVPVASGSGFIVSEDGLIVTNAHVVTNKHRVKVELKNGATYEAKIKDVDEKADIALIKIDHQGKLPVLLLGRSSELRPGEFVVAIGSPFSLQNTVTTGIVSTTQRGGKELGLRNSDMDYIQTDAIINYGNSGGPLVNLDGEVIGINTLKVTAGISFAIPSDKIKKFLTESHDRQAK

IC50 (nM) for HTRA1 (cat), decomposition rate of substrate peptide H2-Opt [nM] | Binder
45 | B1
48 | B2
49 | B3
50 | B4
43 | B5
41 | B6
71 | B7
46 | B8
72 | B9
37 | B10

molecular target: T1, HTRA1 (full); assay: cell-based or functional assay; remark: another data set of the same source

IC50 (nM) for HTRA1 (full), decomposition rate of substrate peptide H2-Opt [nM] | Binder
9.1 | B11
12 | B12
12.2 | B13

molecular target: T2, HTRA1 (cat); assay: cell-based or functional assay; remark: another data set of the same source

IC50 (nM) for HTRA1 (cat), decomposition rate of substrate peptide H2-Opt [nM] | Binder
7.9 | B11
9 | B12
12.9 | B13

— patent publication US20200377573A1 (Daiichi Sankyo, published 2020)
